From PMC7116205 come the findings set out here.

VAMP2 (1-116) (mouse), sequence (P63044 other isoform, or with tags, fused parts or gaps): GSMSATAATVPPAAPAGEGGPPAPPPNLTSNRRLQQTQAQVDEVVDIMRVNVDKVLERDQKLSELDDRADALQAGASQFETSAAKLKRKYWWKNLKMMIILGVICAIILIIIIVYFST
syntaxin 1A 1-288 (rat), sequence (P32851 whole entry T251I): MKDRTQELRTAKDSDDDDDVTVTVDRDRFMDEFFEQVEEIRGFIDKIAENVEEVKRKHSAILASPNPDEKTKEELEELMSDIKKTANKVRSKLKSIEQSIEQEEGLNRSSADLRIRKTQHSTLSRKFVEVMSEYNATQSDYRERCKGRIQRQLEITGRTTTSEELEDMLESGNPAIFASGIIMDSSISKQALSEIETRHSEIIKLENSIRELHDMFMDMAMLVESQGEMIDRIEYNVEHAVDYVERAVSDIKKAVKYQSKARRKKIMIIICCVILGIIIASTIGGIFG

Turning to CpxII A40BPA (natural protein), in the assay with VAMP2 (1-116) (mouse), the share of the cross-links that stay SDS sensitive (not in SDS-resistant cis v/t-SNARE complexes) after Ca2+ worked out at 74%.
Substance CpxII H52BPA (natural protein) showed a share of the cross-links that are SDS sensitive (not in SDS-resistant cis v/t-SNARE complexes) after Ca2+, unboiled samples with syntaxin 1A 1-288 (rat) of 14%.
